The text below walks through data of patent US9382304B2, “Engineered polypeptides having enhanced duration of action with reduced immunogenicity” (priority 2011, dated 2016).

Data set [1] concerns CD3+ CD4+ T cells.
Data set [2] relates to IgG molecules present in normal human sera. The data set can be described thus: Serum response analysis by ELISA (IgG binding to albumin binding polypeptides). The conditions noted are these: 126 sera positive for one or more albumin binding polypeptides; sera diluted 50 times. The procedure: The percentage of human serum containing IgG, capable of binding to a set of albumin binding polypeptides as disclosed herein was analyzed by ELISA.
The plates were coated over night […] at 4° C. On the day of analysis, the plates were washed twice with tap water and blocked for 2 hours with 100 μl of phosphate buffered saline (PBS) containing 0.05% casein (PBSC). […] After incubation for two hours at room temperature (RT), the plates were washed in PBSC four times using an automated ELISA washer. […] 50 μl of the diluted sera was added per well according to the pre-made plate layout. Each serum sample was tested as a singlet. Positive and negative controls were included on each plate and for each albumin binding polypeptide. […] The plates were incubated for one hour at RT and subsequently washed four times in PBSC using an automated ELISA washer.
On the technique in general: ELISA stands for enzyme-linked immunosorbent assay.

The subject of data set [3] is NIH/Swiss mice. Nature of the data set: OGTT DOA (oral glucose tolerance test duration of action). It counts as in vivo, mouse. The conditions noted are these: dosed 24 hours before OGTT, even at higher doses. An excerpt:
Water and a standard pelleted mouse chow diet were available ad libitum, except as noted. […] Significant treatment effects were identified by ANOVA (p<0.05).

For data set [4] the following is noted: rabbit, in vivo; cited from earlier work.
For data set [5] the following is noted: rat, in vivo; cited from earlier work.
The conditions of data set [6]: human, in vivo; cited from earlier work.
For data set [7] the following is noted: mouse, in vivo; cited from earlier work.
The target in data set [8] is T1, GLP-1 receptor (Rattus norvegicus, UniProt P32301).
T1 construct: functional activity was determined using cells that endogenously express GLP-1R; endogenous in cells; host or cells: rat thyroid carcinoma 6-23 (clone 6) cells (ATCC CRL-1607)
T1 sequence (P32301 22-463): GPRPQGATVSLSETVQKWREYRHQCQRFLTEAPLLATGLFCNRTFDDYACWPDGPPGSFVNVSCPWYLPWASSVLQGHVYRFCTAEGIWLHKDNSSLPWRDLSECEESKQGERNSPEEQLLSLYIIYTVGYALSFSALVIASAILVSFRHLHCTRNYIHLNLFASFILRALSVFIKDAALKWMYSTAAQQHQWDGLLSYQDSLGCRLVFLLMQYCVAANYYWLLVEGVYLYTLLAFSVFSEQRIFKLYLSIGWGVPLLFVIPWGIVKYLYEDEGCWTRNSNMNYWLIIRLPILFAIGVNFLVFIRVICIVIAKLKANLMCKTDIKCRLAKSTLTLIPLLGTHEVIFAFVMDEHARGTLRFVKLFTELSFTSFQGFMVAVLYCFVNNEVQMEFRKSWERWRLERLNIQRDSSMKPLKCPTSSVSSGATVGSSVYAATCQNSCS
The data set can be described thus: GLP-1 receptor functional assay (cAMP induction, HTRF) in rat thyroid carcinoma 6-23 (clone 6) cells. It counts as cell-based. The procedure: In another embodiment the cell-based assay is a homogeneous time-resolved fluorescence assay (HTRF®). HTRF® kits are commercially available from Cisbio International (Bedford, Mass.). […] See worldwideweb.htrf.com/products/gper/camp/, the disclosure of which is incorporated by reference herein. […] The HTRF® standards and calibrations are prepared following the instructions in the kit. Assays may be performed with or without the presence of albumin.
See for example United States Patent Application Publication US20110097751A1, incorporated by reference for the assay method. In this example, functional activity was determined using cells that endogenously express GLP-1R, and cAMP induction is detected as a measure of exendin activity.
The data above was determined in the presence of about 0.1% bovine serum albumin (BSA).
On the technique in general: TR-FRET usually uses a lanthanide donor and a delayed reading to cut background.

Like-named read-outs stand apart in the source and are kept apart here.

As for `CC[C@H](C)[C@H](NC(=O)[C@H](C)NC(=O)[C@H](CC(=O)O)NC(=O)[C@H](CCCCN)NC(=O)[C@H](CC(C)C)NC(=O)[C@H](C)NC(=O)[C@H](CCC(=O)O)NC(=O)[C@@H](NC(=O)CNC(=O)[C@H](CCC(=O)O)NC(=O)[C@@H](NC(=O)[C@@H](NC(=O)[C@H](CCCCN)NC(=O)[C@H](C)NC(=O)[C@H](CCCCN)NC(=O)[C@H](CC(=O)O)NC(=O)[C@@H](NC(=O)[C@H](CC(C)C)NC(=O)[C@H](CCCNC(=N)N)NC(=O)[C@H](CCCCN)NC(=O)[C@H](Cc1ccc(O)cc1)NC(=O)[C@H](Cc1ccccc1)NC(=O)[C@H](CC(=O)O)NC(=O)[C@H](CO)NC(=O)[C@@H](NC(=O)CNC(=O)[C@H](Cc1ccc(O)cc1)NC(=O)[C@H](CSC1CC(=O)N(CCNC(=O)CN2CCN(CC(=O)O)CCN(CC(=O)O)CCN(CC(=O)O)CC2)C1=O)NC(=O)[C@H](CC(=O)O)NC(=O)[C@H](CC(C)C)NC(=O)[C@H](CCC(=O)O)NC(=O)[C@H](C)NC(=O)[C@H](CC(N)=O)NC(=O)[C@H](C)NC(=O)[C@H](C)NC(=O)[C@H](CCC(=O)O)NC(=O)[C@H](CCCCN)NC(=O)[C@H](C)NC(=O)[C@H](CO)NC(=O)[C@H](C)NC(=O)[C@H](CC(C)C)NC(=O)CN)C(C)C)[C@@H](C)CC)[C@@H](C)O)C(C)C)C(C)C)C(=O)N[C@@H](CC(C)C)C(=O)N[C@@H](C)C(=O)N[C@@H](C)C(=O)N[C@@H](CC(C)C)C(=O)N1CCC[C@H]1C(=O)O` (some centres unmarked) [PEP07968], in data set [1], the immunogenicity definition entry is on record as “non-immunogenic” and the “number of donors in which CD3+ CD4+ T cells proliferation was induced, compared to the albumin control” value is 1 donors. Also, the “IgG binding reactivity (average OD-value, percentage of serum with IgG binding)” value in data set [2] is given as “least reactivity”.
Regarding “GSLAEAKEAANAELDSYGVSDFYKRLIDKAKTVEGVEALKDAILAALP [PEP07986]”, in data set [3], the “activity in OGTT DOA when dosed at t-24 hours” value is “inactive”.
What is called half-life is the time needed for the level to fall by half in the phase considered. Regarding “rabbit serum albumin: rabbit serum albumin”, the half-life result in data set [4] is “about 5 days”.
albumin: the half-life in data set [5] is 45.6 h; in data set [4] it was 134 h; in data set [6], 456 h; in data set [7], 24 h.

B1: HGEGTFTSDLSKQLEEEAVRLFIEWLKNTGGGGSASGSLAEAKEAANAELDSYGVSDFYKRLIDKAKTVEGVEALKDAILAALP (protein)
chain: HGEGTFTSDLSKQLEEEAVRLFIEWLKNTGGGGSASGSLAEAKEAANAELDSYGVSDFYKRLIDKAKTVEGVEALKDAILAALP
As for B1, the “activity in OGTT DOA when dosed at t-24 hours” value in data set [3] is reported as “did not display 24 duration”. Also, the “in vitro activity against the GLP-1 receptor” value in data set [8] is recorded as “active in vitro”.
